This note sets out measurements from article PMC8794893 (Proceedings of the National Academy of Sciences of the …, 2022).

For assay [1], the target named is T1, Archaeoglobus fulgidus DsrAB dissimilatory sulfite reductase (Archaeoglobus fulgidus VC-16 …, UniProt Q59109 1-418; Q59110 1-366). The assay can be described thus: SPR. For orientation: In SPR one partner is held on a chip, and binding of the other changes the refractive index at the surface.
Assay [2] deals with T1, Archaeoglobus fulgidus DsrAB …. The assay can be described thus: MST.

T1 sequence (Q59109 whole entry, chain 1 of 2): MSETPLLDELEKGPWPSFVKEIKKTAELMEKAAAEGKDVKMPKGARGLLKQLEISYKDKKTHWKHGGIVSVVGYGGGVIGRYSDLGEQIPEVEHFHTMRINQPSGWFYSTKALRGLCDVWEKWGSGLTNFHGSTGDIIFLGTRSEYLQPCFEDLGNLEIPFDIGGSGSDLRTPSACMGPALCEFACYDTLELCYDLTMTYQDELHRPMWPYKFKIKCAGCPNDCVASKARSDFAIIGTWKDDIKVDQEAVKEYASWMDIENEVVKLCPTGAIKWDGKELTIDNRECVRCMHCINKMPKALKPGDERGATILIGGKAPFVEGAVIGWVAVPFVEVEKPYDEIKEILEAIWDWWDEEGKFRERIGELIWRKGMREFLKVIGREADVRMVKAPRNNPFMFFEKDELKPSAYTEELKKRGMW
T1 sequence (Q59110 whole entry, chain 2 of 2): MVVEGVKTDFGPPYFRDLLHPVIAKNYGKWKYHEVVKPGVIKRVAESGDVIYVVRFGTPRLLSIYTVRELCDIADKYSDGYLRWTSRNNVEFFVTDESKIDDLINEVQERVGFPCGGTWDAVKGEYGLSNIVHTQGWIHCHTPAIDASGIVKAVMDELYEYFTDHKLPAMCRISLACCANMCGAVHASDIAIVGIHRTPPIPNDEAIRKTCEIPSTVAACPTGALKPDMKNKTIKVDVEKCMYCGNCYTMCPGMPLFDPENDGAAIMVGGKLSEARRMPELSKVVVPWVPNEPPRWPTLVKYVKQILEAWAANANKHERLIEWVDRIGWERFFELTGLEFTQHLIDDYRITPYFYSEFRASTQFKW

B1: recombinant Archaeoglobus fulgidus DsrD with C-terminal His-tag (natural protein, Archaeoglobus fulgidus VC-16, UniProt P70742 1-77, looked up)
chain: MADYTEEDKQKVLAQLSKKTWKIPELAKILKMDKKVVKKIVQDLINEGVAGYWSSGSTTYVATKEYIEELEKKRAEG
modifications: RED-NHS dye on amines (Monolith NT Protein Labeling Kit RED-NHS second generation), in the MST experiment only
For the molecule B1, the Kd (usually the concentration at which binding is half-saturated) in assay [1] came to 540 ± 20 nM; in assay [2] it was 350 ± 60 nM.
